# B1: N49P22 (antibody, V domains shown)
# V domain 1: HIQLLQSGPQVKKSGDTVRISCETSGYNFVDSRIHWVRQTPEKRLRWMGWINPLQGGVNYAPEFQGRIRMTRDTFIDTVYVDLSGLTPADTAYYYCARGIDGKSYPFHFWGHGTRVTVFS
# V domain 2: RFALTQPASVSGSPGQTITITCAGGSVSWFHFPPGKTPRLIIYESSKRPSGVSPRFSGSQSGSTASLIISGLQSDDEGTYFCSILEFFGRGTLVTVLS
# Legend:
# Assay in all cases: cell-based or functional assay
# [1] = biological target: MuLV envelope (negative control pseudovirus) (MuLV)
# [2] = biological target: 62357_14_D3_4589 Env pseudovirus (HIV-1)
# [3] = biological target: ZM247v1(Rev-) Env pseudovirus (HIV-1)
# [4] = biological target: Du422.1 Env pseudovirus (HIV-1)
# [5] = biological target: Ce1176_A3 Env pseudovirus (HIV-1)
# [6] = biological target: HIV-0013095-2.11 Env pseudovirus (HIV-1)
# [7] = biological target: CNE53 Env pseudovirus (HIV-1)
# [8] = biological target: QH0692.42 Env pseudovirus (HIV-1)
# [9] = biological target: Q842.d12 Env pseudovirus (HIV-1)
# [10] = biological target: CNE17 Env pseudovirus (HIV-1)
# [11] = biological target: 191955_A11 Env pseudovirus (HIV-1)
# [12] = biological target: Q259.d2.17 Env pseudovirus (HIV-1)
# [13] = biological target: CNE58 Env pseudovirus (HIV-1)
# [14] = biological target: 928-28 Env pseudovirus (HIV-1)
# [15] = biological target: 1054_07_TC4_1499 Env pseudovirus (HIV-1)
# [16] = biological target: 263-8 Env pseudovirus (HIV-1)
# [17] = biological target: 246F C1G Env pseudovirus (HIV-1)
# [18] = biological target: ZM135M.PL10a Env pseudovirus (HIV-1)
# [19] = biological target: 6535.3 Env pseudovirus (HIV-1)
# [20] = biological target: CAAN5342.A2 Env pseudovirus (HIV-1)
# [21] = biological target: 1006_11_C3_1601 Env pseudovirus (HIV-1)
# [22] = biological target: HIV-001428-2.42 Env pseudovirus (HIV-1)
# [23] = biological target: TRO.11 Env pseudovirus (HIV-1)
# [24] = biological target: Ce1172_H1 Env pseudovirus (HIV-1)
# [25] = biological target: RHPA4259.7 Env pseudovirus (HIV-1)
# [26] = biological target: Ce703010054_2A2 Env pseudovirus (HIV-1)
# [27] = biological target: AC10.0.29 Env pseudovirus (HIV-1)
# [28] = biological target: 1394C9G1(Rev-) Env pseudovirus (HIV-1)
# [29] = biological target: CNE52 Env pseudovirus (HIV-1)
# [30] = biological target: CNE19 Env pseudovirus (HIV-1)
# [31] = biological target: 9004SS_A3_4 Env pseudovirus (HIV-1)
# [32] = biological target: REJO4541.67 Env pseudovirus (HIV-1)
# [33] = biological target: HIV-16845-2.22 Env pseudovirus (HIV-1)
# [34] = biological target: ZM197M.PB7 Env pseudovirus (HIV-1)
# [35] = biological target: WEAU_d15_410_787 Env pseudovirus (HIV-1)
# [36] = biological target: CAP45.2.00.G3 Env pseudovirus (HIV-1)
binder,measurement,setting,value
B1,IC50,[1],> 50 mg/L
same,IC80,[1],> 50 mg/L
same,MPI,[1],8
same,IC50,[2],> 50 mg/L
same,IC80,[2],> 50 mg/L
same,MPI,[2],13
same,IC50,[3],> 50 mg/L
same,IC80,[3],> 50 mg/L
same,MPI,[3],11
same,IC50,[4],> 50 mg/L
same,IC80,[4],> 50 mg/L
same,MPI,[4],4
same,IC50,[5],> 50 mg/L
same,IC80,[5],> 50 mg/L
same,MPI,[5],23
same,IC50,[6],> 50 mg/L
same,IC80,[6],> 50 mg/L
same,MPI,[6],9
same,IC50,[7],0.779 mg/L
same,IC80,[7],5.11 mg/L
same,MPI,[7],93
same,IC50,[8],0.592 mg/L
same,IC80,[8],2.02 mg/L
same,MPI,[8],100
same,IC50,[9],0.079 mg/L
same,IC80,[9],0.359 mg/L
same,MPI,[9],100
same,IC50,[10],46.3 mg/L
same,IC80,[10],> 50 mg/L
same,MPI,[10],53
same,IC50,[11],> 50 mg/L
same,IC80,[11],> 50 mg/L
same,MPI,[11],9
same,IC50,[12],> 50 mg/L
same,IC80,[12],> 50 mg/L
same,MPI,[12],15
same,IC50,[13],28.4 mg/L
same,IC80,[13],> 50 mg/L
same,MPI,[13],57
same,IC50,[14],> 50 mg/L
same,IC80,[14],> 50 mg/L
same,MPI,[14],32
same,IC50,[15],0.654 mg/L
same,IC80,[15],2.89 mg/L
same,MPI,[15],100
same,IC50,[16],1.83 mg/L
same,IC80,[16],18.5 mg/L
same,MPI,[16],89
same,IC50,[17],> 50 mg/L
same,IC80,[17],> 50 mg/L
same,MPI,[17],10
same,IC50,[18],> 50 mg/L
same,IC80,[18],> 50 mg/L
same,MPI,[18],27
same,IC50,[19],> 50 mg/L
same,IC80,[19],> 50 mg/L
same,MPI,[19],5
same,IC50,[20],0.425 mg/L
same,IC80,[20],1.88 mg/L
same,MPI,[20],99
same,IC50,[21],0.898 mg/L
same,IC80,[21],14.7 mg/L
same,MPI,[21],83
same,IC50,[22],0.73 mg/L
same,IC80,[22],7.1 mg/L
same,MPI,[22],91
same,IC50,[23],0.283 mg/L
same,IC80,[23],1.36 mg/L
same,MPI,[23],99
same,IC50,[24],> 50 mg/L
same,IC80,[24],> 50 mg/L
same,MPI,[24],0
same,IC50,[25],0.637 mg/L
same,IC80,[25],5.6 mg/L
same,MPI,[25],92
same,IC50,[26],> 50 mg/L
same,IC80,[26],> 50 mg/L
same,MPI,[26],0
same,IC50,[27],> 50 mg/L
same,IC80,[27],> 50 mg/L
same,MPI,[27],0
same,IC50,[28],> 50 mg/L
same,IC80,[28],> 50 mg/L
same,MPI,[28],35
same,IC50,[29],1.7 mg/L
same,IC80,[29],10 mg/L
same,MPI,[29],91
same,IC50,[30],0.873 mg/L
same,IC80,[30],8.19 mg/L
same,MPI,[30],92
same,IC50,[31],> 50 mg/L
same,IC80,[31],> 50 mg/L
same,MPI,[31],42
same,IC50,[32],0.792 mg/L
same,IC80,[32],12.1 mg/L
same,MPI,[32],84
same,IC50,[33],4.6 mg/L
same,IC80,[33],41.9 mg/L
same,MPI,[33],87
same,IC50,[34],2.58 mg/L
same,IC80,[34],25.1 mg/L
same,MPI,[34],84
same,IC50,[35],1.54 mg/L
same,IC80,[35],> 50 mg/L
same,MPI,[35],76
same,IC50,[36],> 50 mg/L
same,IC80,[36],> 50 mg/L
same,MPI,[36],0

# From patent US20240117018A1
